Substitutions are numbered along the chain they refer to.
B1: 28-F8-C4-A8 (antibody, human IgG1, kappa, V domains shown)
VH: EVQLQQSGAELVQPGASMKLSCKTSGYTFTTYDINWVRQRPEQGLEWIGWIFPGDGTTKYNEKFKGKATLTTDKSSSTAYMHLSRLTSEDSVVYFCARTPWFDYWGQGTTLTVSS
VL: DIVLSQSPAIMSASPGEKVIMTCSASSSISYMYWYQQKPGTSPKRWIYDTSKLASGVPARFSVSGSGTSYSLTISSMEAEDAATYYCHQRSSYPTFGGGTKLELKR
B2: cAb1-z0-p7 (antibody, human IgG1, kappa, V domains shown)
VH: EVQLVESGGGLVKPGGSLRLSCAASGFTFSSYGMSWVRQAPGKGLEWVSSISGSGSYTYYPDSLKGRFTISRDNAKNSLYLQMNSLRAEDTAVYYCARQQGYWYFDVWGQGTTVTVSS
VL: DIVMTQTPLSLPVTPGEPASISCRASQSLASSYGKTYLSWYLQKPGQSPQLLIYGISNRFSGVPDRFSGSGSGTDFTLKISRVEAEDVGVYYCLHGTHQPLTFGQGTKLEIKR
B3: cAb1-z5-p7 (antibody, human IgG1, kappa, V domains shown)
VH: B2 VH with G44R, S49A
VL: B2 VL with I2V
B4: cAb1-z3-p7 (antibody, human IgG1, kappa, V domains shown)
VH: B2 VH with G44R
VL: B2 VL with I2V
B5: 19-F1-E9-B11 (antibody, human IgG1, kappa, V domains shown)
VH: EVQLQQSGPSLVKPSQTLSLTCSVTGGSITSFYWNWIRKFPGNKLEYMGYISSSGSTYYNPSLKSRISITRDTSKNQSYLQLNSVTAEDTATYYCARGGVHYGFGDYWGQGTSVTVSS
VL: DIVMTQSAPSVPVTPGESVSISCRSSKSLLHSNGNTYLYWFLQRPGQSPQLLIYRMSNLASGVPDRFSGSGSGTAFTLRISRVEAEDVGVYYCMQHLEYPLTFGAGTKLELKR
B6: 34-H11-D9-F6 (antibody, human IgG1, kappa, V domains shown)
VH: EVQLQQSGAELVKPRASVRLSCRASGYTFTSYWMHWVKQRPGQGLEWIGMIHPNSGSTNYNEKFKSKATLTVDKSSSTAYMQLSSLTSEDSAVYFCARERFGLLRYFDYWGQGTTLTVSS
VL: DIVMTQSPSSMYASLGERVTITCKASQDINSFLSWFQQKPGKSPKTLLYRANRLMDGVPSRFSGSGSGQDFSLTISSREYEDMGIYYCLQYDEFPFTFGSGTKLELKR
B7: 28-B1-E8-C11 (antibody, human IgG1, kappa, V domains shown)
VH: EVKLVESGAVLVKPGASVKISCKASGYTLSDFNMDWVKQSQGKSLEWVGDINPNYDTITYNQKFRGKATLTVDRSSNTAYMELRSLTSEDSAVYYCARGELGRYFYVWGAGTTVTVSS
VL: DIQLTQPPASLSASVGETVTITCRASENVYSYLAWYRQKQGRSPQLLVYNAKTLPEGVPSRFSGSGSGTQFSLKINSLQTEDLGDYYCQHHYGTPWTFGGGTKLEIKR
B8: cAb2-z1-p9 (antibody, human IgG1, kappa, V domains shown)
VH: B7 VH
VL: DIQLTQPPSSLSASVGDRVTITCRASENVYSYLAWYQQKPGRSPQLLVYNAKTLPEGVPSRFSGSGSGTQFTLTISSLQPEDFADYYCSHHYGTPWTFGGGTKVEIKR
B9: cAb2-z5-p6 (antibody, human IgG1, kappa, V domains shown)
VH: QVQLVESGAVVKKPGASVKVSCKASGYTLSDFNMDWVRQAPGKSLEWMGDINPNYDTITYNQKFRGRVTLTVDRSINTAYMELSRLRSDDTAVYYCARGELGRYFYVWGAGTMVTVSS
VL: B8 VL
B10: 16-D10-E1-E1 (antibody, human IgG1, kappa, V domains shown)
VH: EVQLQQSGPELVRPGVSVKISCKGSGYTFTDYAMHWVKQSHAKSLEWIGVINTYSGNTYYSQKFKGKATMTVDKSSSTAYMELARLTSEDSAIYYCARGAGYFPYWYFDVWGAGTTVTVSS
VL: DIQMIQSPSYLAASPGETITINCRASKSISKYLAWYQEKPGKTNKLLIYSGSTLQSGIPSRFSGSGSGTDFTLTISSLEPEDFAMYYCQQHYEYPYTFGGGTKLEIKR
B11: 16-B6-G3-E10 (antibody, human IgG1, kappa, V domains shown)
VH: EVQLQQSGTELVRPGALVKLSCKTSGFNIKDCYMHWVKQRPEQGLEWIGWIDPENGNTIYDPKFQGKATITADTSSYTAYLQLSSLTSEDTAVYYCARSRARGYAMDYWGQGTSVTVTS
VL: DIVMTQSPASLAVSLGQRATISCRASQSVSTSSYSYMHWYRQIPGQPPKLLIKYASNLESGVPARFSGSGSGTDFTLNIHPVEEEDTATYYCQHSWEIPRTFGGGTKLELKR

Experiments:
[1] = target: Human B7-H3-His protein (human) (UniProt Q5ZPR3); assay: BLI, Fortebio Octet R2, antibody on AMQ sensor, human B7-H3-His in solution
[2] = target: Human B7-H3-His protein (human) (UniProt Q5ZPR3); assay: SPR, Biacore 8K, antibody captured by anti-human IgG Fc on CM5, B7-H3 Human-His as analyte, 1:1 model

| Kd [1] [nM] | koff [1] [s⁻¹] | kon [1] [M⁻¹ s⁻¹] | Kd [2] [nM] | koff [2] [s⁻¹] | kon [2] [M⁻¹ s⁻¹] | Binder |
| --- | --- | --- | --- | --- | --- | --- |
| 0.0434 | 7.56e-05 | 1.74e+06 | – | – | – | B1 |
| – | – | – | 6.53 | 8.2e-05 | 12600 | B2 |
| – | – | – | 3.51 | 7.21e-05 | 20500 | B3 |
| – | – | – | 4.02 | 6.87e-05 | 17100 | B4 |
| 2.32 | 0.000408 | 176000 | – | – | – | B5 |
| 0.0522 | 7.52e-05 | 1.44e+06 | – | – | – | B6 |
| 0.0714 | 8.49e-05 | 1.19e+06 | 5.91 | 0.000846 | 143000 | B7 |
| – | – | – | 4.85 | 0.000802 | 165000 | B8 |
| – | – | – | 6.6 | 0.00122 | 184000 | B9 |
| 0.0877 | 0.000142 | 1.62e+06 | – | – | – | B10 |
| < 0.001 | < 1e-07 | 1.3e+06 | – | – | – | B11 |

Reference: EP4763862A1
